According to PMC12442346, “Novel regulatory mechanism of choline-O-sulfate and choline catabolism by two BetIs in Alphaproteobacteria” (Applied and Environmental Microbiology, 2025):

How the values were obtained:
BetI2 = biological target: T1, BetI2 (Ruegeria pomeroyi, UniProt Q5LUG8); test: microscale thermophoresis of BetI2 binding to DNA probes with or without choline; conditions: effector; DNA probes P1 (betI2 box 1) and P2 (betI2 box 2); 1x PBS pH 7.4, 0.05% Tween-20, 25 C; labelled protein
T1 construct: gene betI; full length gene in pET28a(+), C-terminal His-tag, expressed in E. coli BL21(DE3), Ni-NTA and gel filtration; RED-Tris-NTA labelled for MST
T1 sequence (Q5LUG8 1-193): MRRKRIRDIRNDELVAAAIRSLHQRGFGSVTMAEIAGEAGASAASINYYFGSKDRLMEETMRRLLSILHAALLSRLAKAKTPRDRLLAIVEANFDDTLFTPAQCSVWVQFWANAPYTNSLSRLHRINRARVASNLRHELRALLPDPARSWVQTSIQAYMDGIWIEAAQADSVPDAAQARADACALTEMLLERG

[1] = tested on: T2, BetI2 (Ruegeria pomeroyi DSS-3), ORF:6e67dd5c; test: EMSA; conditions: EMSA: 2 mM EDTA, 20 mM KCl, 0.5 mM DTT, 4% Ficoll-400, pH 8.0, 2 ug poly(dI-dC), 20 uL, protein 0-28 uM; MST: 1x PBS pH 7.4, 0.05% Tween-20, 25 C
T2 sequence: T1 sequence (Q5LUG8 1-193)

[2] = tested on: BetI2 (Ruegeria pomeroyi DSS-3); test: MST; conditions: EMSA: 2 mM EDTA, 20 mM KCl, 0.5 mM DTT, 4% Ficoll-400, pH 8.0, 2 ug poly(dI-dC), 20 uL, protein 0-28 uM, MST: 1x PBS pH 7.4, 0.05% Tween-20, 25 C

Molecule: C[N+](C)(C)CCO [choline]
- microscale thermophoresis of BetI2 binding to DNA probes with or without choline (BetI2): The affinities of BetI2 to the IGR probe variants with or without choline were determined

Molecule: GGCCATATTGGCCAATCGGCCAAAGGGTTCAAGTTTAAAGGATTATCGAAAAACTTGAACGACTGTTCAAGTTTTGGTTCTTTTGATCAGGTTATTGTGCTAATTTCCCGCATCATTCGACCCGGCCCGGAGGAGAGGGCGGGCGTGAACCCAGGGAGGGACCATGAT (double strand) [IGR (EMSA probe)]
- binding [1]: binds

Molecule: IGR (MST probe)
- Kd ([2]; no choline stated): 870 nM

Molecule: P1 (IGR variant, betI2 box 1 only)
- binding signal (fold affinity of P1 over P2) ([2]; choline): 2
- binding signal (fold Kd of P1 over P2) ([2]; no choline): 4

Molecule: P2 (IGR variant, betI2 box 2 only)
- binding signal (affinity relative to P1 with choline) [2]: 0.5
- binding signal ([2]; no choline, scale: reference for P1 without choline): 1
